Series [1] can be described thus: stability of purified, concentrated protein on storage. Conditions: 4° C., concentrated to 18 mg/ml. It is filed as physicochemical. As to the method: In addition, these constructs were purified using a 3-step purification scheme to sufficient purity for enzymatic assays (FIGS. 9B,D & 10A). Constructs that express each of the individual domains were identified, as well as constructs just lacking the cTP. Expression yields for these constructs ranged from 2-65 mg/1 L of E. coli using a 3-step purification. One of the most promising St-GWD constructs allowed the instant inventors to purify 60-65 mg of >95% pure St-GWD per liter of E. coli using a 3-step purification protocol (FIGS. 10A & 10B). Importantly, the purified protein was concentrated to 18 mg/ml and the protein was stable at 4° C. for >1 WEEK.

Series [2] can be described thus: glucose release from native starch treated with combinations of amylases, dikinase and phosphatase. The class given is biochemical, Arabidopsis. Conditions: BAM3, ISA3; 25° C., 60 minutes; FIG. 7. Here is the method: FIG. 7 includes a plot showing the glucose released for native Arabidopsis starch that was incubated at 25° C. for 60 minutes with combinations of amylases (BAM+ISA), dikinase (At-GWD), or phosphatase (At-SEX4), undigested starch was pelleted with a high-speed spin, the supernatant sugars were hydrolyzed via acid hydrolysis and glucose content was measured.
To observe how GWDs can be utilized to enhance starch utilization, native Arabidopsis starch was first treated with combinations of BAM3, ISA3, St-GWD, and At-SEX4. a high-speed spin was performed to remove the undigested starch, any remaining oligo-saccharides were hydrolyzed, and glucose released into the supernatant was measured (FIG. 7). Glucose was only released upon addition of amylases.
Native Arabidopsis starch was treated with combinations of BAM3, ISA3, StGWD, and AtSEX4, performed a high-speed spin to remove the undigested starch, hydrolyzed any remaining oligo-saccharides, and measured glucose released into the supernatant (FIG. 7). Glucose was only released upon addition of amylases, as expected.

Series [3] can be described thus: cellulose phosphorylation assay (33P-β-ATP radio-label incorporation into cellulose). It is filed as biochemical. Conditions: FIG. 11C, 11D. Here is the method:
Next, it was tested whether phosphorylation could be directed towards cellulose, the most abundant polymer on earth, by building chimeras comprising cellulose-binding CBMs. Both the CBM30 and CBM44 were chosen from the cellulase CelJ of the thermophilic, gram-positive bacterium Clostridium thermocellum, which bind cellulose with high affinity. The engineered protein containing CtCBM30 and CtCBM44 was purified. The starch-phosphorylation assay was modified to develop an assay for measure phosphorylation of cellulose, which was obtained from Sigma-Avicel PH-101. To measure dikinase activity, the cellulose was incubated with the engineered chimeric dikinase in question along with ^33P-β-ATP, the ^33P-β-ATP and enzyme were washed out, and radio-label incorporation into the cellulose was measured.

B1: St-GWD: full length Solanum tuberosum glucan, water dikinase, amino acids 1-1464 (protein, listed as Solanum tuberosum)
chain: MSNSLGNNLLYQGFLTSTVLEHKSRISPPCVGGNSLFQQQVISKSPLSTEFRGNRLKVQKKKIPMEKKRAFSSSPHAVLTTDTSSELAEKFSLGGNIELQVDVRPPTSGDVSFVDFQVTNGSDKLFLHWGAVKFGKETWSLPNDRPDGTKVYKNKALRTPFVKSGSNSILRLEIRDTAIEAIEFLIYDEAHDKWIKNNGGNFRVKLSRKEIRGPDVSVPEELVQIQSYLRWERKGKQNYPPEKEKEEYEAARTVLQEEIARGASIQDIRARLTKTNDKSQSKEEPLHVTKSDIPDDLAQAQAYIRWEKAGKPNYPPEKQIEELEEARRELQLELEKGITLDELRKTITKGEIKTKVEKHLKRSSFAVERIQRKKRDFGHLINKYTSSPAVQVQKVLEEPPALSKIKLYAKEKEEQIDDPILNKKIFKVDDGELLVLVAKSSGKTKVHLATDLNQPITLHWALSKSPGEWMVPPSSILPPGSIILDKAAETPFSASSSDGLTSKVQSLDIVIEDGNFVGMPFVLLSGEKWIKNQGSDFYVGFSAASKLALKAAGDGSGTAKSLLDKIADMESEAQKSFMHRFNIAADLIEDATSAGELGFAGILVWMRFMATRQLIWNKNYNVKPREISKAQDRLTDLLQNAFTSHPQYREILRMIMSTVGRGGEGDVGQRIRDEILVIQRNNDCKGGMMQEWHQKLHNNTSPDDVVICQALIDYKSDFDLGVYWKTLNENGITKERLLSYDRAIHSEPNFRGDQKGGLLRDLGHYMRTLKAVHSGADLESAIANCMGYKTEGEGFMVGVQINPVSGLPSGFQDLLHFVLDHVEDKNVETLLERLLEAREELRPLLLKPNNRLKDLLFLDIALDSTVRTAVERGYEELNNANPEKIMYFISLVLENLALSVDDNEDLVYCLKGWNQALSMSNGGDNHWALFAKAVLDRTRLALASKAEWYHHLLQPSAEYLGSILGVDQWALNIFTEEIIRAGSAASLSSLLNRLDPVLRKTANLGSWQIISPVEAVGYVVVVDELLSVQNEIYEKPTILVAKSVKGEEEIPDGAVALITPDMPDVLSHVSVRARNGKVCFATCFDPNILADLQAKEGRILLLKPTPSDIIYSEVNEIELQSSSNLVEAETSATLRLVKKQFGGCYAISADEFTSEMVGAKSRNIAYLKGKVPSSVGIPTSVALPFGVFEKVLSDDINQGVAKELQILMKKLSEGDFSALGEIRTTVLDLSAPAQLVKELKEKMQGSGMPWPGDEGPKRWEQAWMAIKKVWASKWNERAYFSTRKVKLDHDYLCMAVLVQEIINADYAFVIHTTNPSSGDDSEIYAEVVRGLGETLVGAYPGRALSFICKKKDLNSPQVLGYPSKPIGLFIKRSIIFRSDSNGEDLEGYAGAGLYDSVPMDEEEKVVIDYSSDPLITDGNFRQTILSNIARAGHAIEELYGSPQDIEGVVRDGKIYVVQTRPQM
In the case of B1, in series [1], the “time the protein was stable” value is recorded as more than 1 WEEK. For the same molecule, the “effect on glucose release when added to amylases” value in series [2] was “almost doubled”.

B2: CtCBM30-StGWD: chimera of Clostridium thermocellum CelJ CBM30 and StGWD dikinase domain (protein)
chain: MGHHHHHHMEQKLISEEDLTSASSASAETVAPEGYRKLLDVQIFKDSPVVGWSGSGMGELETIGDTLPVDTTVTYNGLPTLRLNVQTTVQSGWWISLLTLRGWNTHDLSQYVENGYLEFDIKGKEGGEDFVIGFRDKVYERVYGLEIDVTTVISNYVTVTTDWQHVKIPLRDLMKINNGFDPSSVTCLVFSKRYADPFTVWFSDIKITSEDNEKSAPAIKVGVQINPVSGLPSGFQDLLHFVLDHVEDKNVETLLERLLEAREELRPLLLKPNNRLKDLLFLDIALDSTVRTAVERGYEELNNANPEKIMYFISLVLENLALSVDDNEDLVYCLKGWNQALSMSNGGDNHWALFAKAVLDRTRLALASKAEWYHHLLQPSAEYLGSILGVDQWALNIFTEEIIRAGSAASLSSLLNRLDPVLRKTANLGSWQIISPVEAVGYVVVVDELLSVQNEIYEKPTILVAKSVKGEEEIPDGAVALITPDMPDVLSHVSVRARNGKVCFATCFDPNILADLQAKEGRILLLKPTPSDIIYSEVNEIELQSSSNLVEAETSATLRLVKKQFGGCYAISADEFTSEMVGAKSRNIAYLKGKVPSSVGIPTSVALPFGVFEKVLSDDINQGVAKELQILMKKLSEGDFSALGEIRTTVLDLSAPAQLVKELKEKMQGSGMPWPGDEGPKRWEQAWMAIKKVWASKWNERAYFSTRKVKLDHDYLCMAVLVQEIINADYAFVIHTTNPSSGDDSEIYAEVVRGLGETLVGAYPGRALSFICKKKDLNSPQVLGYPSKPIGLFIKRSIIFRSDSNGEDLEGYAGAGLYDSVPMDEEEKVVIDYSSDPLITDGNFRQTILSNIARAGHAIEELYGSPQDIEGVVRDGKIYVVQTRPQM
modifications: Chimeric Protein
notes: chimera of Clostridium thermocellum CelJ CBM30 and StGWD dikinase domain
Turning to B2, in series [3], the phosphorylation of cellulose entry was “robustly phosphorylated cellulose”.
